Test results published in patent US11912782B2, “BCMA monoclonal antibody-drug conjugate” (MedImmune, LLC, priority 2017, dated 2024).
“Also recorded” adds a separate entry of the source.

What was measured:
MM.1S cells = test: Cell killing in the presence of soluble BCMA (conditioned media from Ad293 cells expressing human BCMA); assay type: cell-based; conditions: MM.1S and NCI-H929, sBCMA at levels up to 720 ng/mL
Procedure: (§1) Killing of multiple myeloma and plasma cell leukemia cell lines by antibody-drug conjugates comprising 15B2GL, or affinity-optimized clones thereof, conjugated to SG3249 was evaluated in vitro using the protocol recommended in the CELLTITER-GLO® kit (Promega, Madison, Wis.). Killing of multiple myeloma and plasma cell leukemia cell lines by the free warhead SG3199 also was evaluated using the protocol recommended in the CELLTITER-GLO® kit (Promega, Madison, Wis.). Briefly, 5×10^3 cells in 80 μL RPMI+10% FBS were added to the inner wells of white-walled 96-well plates (Corning® Costar®, Fisher Scientific, Waltham, Mass.). The following BCMA-expressing cell lines were tested: NCI-H929, EJM, MM.1R. JJN3, OPM-2, MM.1S, U266.B1, and L363. BMCA-negative cell lines Raji and Jurkat also were tested. The antibody-drug conjugates were diluted to a 5× stock (2.5 μg/mL) in RPMI+10% FBS. Treatments were then serially diluted 1:3 in RPMI+10% FBS. 20 μL of this series was added to the cells in duplicate, resulting in a 12-point dose curve of antibody-drug conjugate ranging from 0.5 μg/mL at the highest concentration to 3×10^−6 vg/mL at the lowest. Isotype antibody-drug conjugate (IgG1-SG3249 and IgG1-mc-MMAF) and media-only controls also were included. Plates were incubated at 37° C., 5% CO2 for 96 hours. At the end of the incubation period, 100 μL of the Substrate Solution (Promega, Madison Wis.) was added to each well. Luminescence was measured using an EnVision™ Multilabel plate reader (Perkin Elmer, Waltham, Mass.). Data were analyzed and graphed using GraphPad Prism™ software (GraphPad Software, Inc., La Jolla, Calif.), and the half-maximal inhibitory concentration (IC50) was determined.
The ability of the 15B2GL-SG3249 ADC to kill multiple myeloma cells in vitro in the presence of soluble BCMA (sBCMA) as compared to the I09-5G3249 ADC was evaluated in MM.1S cells using the protocol described above, except that tested cell lines also were treated with BCMA-containing conditioned media collected from Ad293 cells expressing human BCMA (FIGS. 3A and 3B). 15B2GL-SG3249 ADC cell killing in the presence of sBCMA also was compared to ADCs comprising the anti-BCMA antibody J6M0, which is described in U.S. Pat. No. 9,273,141.

Raji = test: In vitro cytotoxicity, CELLTITER-GLO, 96 hours (BCMA-negative line); assay type: cell-based; conditions: Burkitt's lymphoma, BCMA receptor number 0
Procedure: as §1, with “20 μL of this series was added to the cells in duplicate, resulting in a 12-point dose curve of antibody-drug conjugate ranging from 0.5 μg/mL at the highest concentration to 3×10^−6 vg/mL at the lowest. Isotype antibody-drug conjugate (IgG1-SG3249 and IgG1-mc-MMAF) and media-only controls also were included. Plates were incubated at 37° C., 5% CO2 for 96 hours. At the end of the incubation period, 100 μL of the Substrate Solution (Promega, Madison Wis.) was added to each well.” left out

Jurkat = test: as above; assay type: cell-based; conditions: T-lymphocyte, BCMA receptor number 0
Procedure: as §1, with “20 μL of this series was added to the cells in duplicate, resulting in a 12-point dose curve of antibody-drug conjugate ranging from 0.5 μg/mL at the highest concentration to 3×10^−6 vg/mL at the lowest. Isotype antibody-drug conjugate (IgG1-SG3249 and IgG1-mc-MMAF) and media-only controls also were included. Plates were incubated at 37° C., 5% CO2 for 96 hours. At the end of the incubation period, 100 μL of the Substrate Solution (Promega, Madison Wis.) was added to each well.” left out

MM.1S xenograft = test: MM.1S subcutaneous xenograft model (Example 5); assay type: in vivo, mouse; conditions: single intravenous dose 1 mg/kg, observed for 99 days post tumor implantation
From the text: (§2) Subcutaneous xenograft mouse models of multiple myeloma and plasma cell leukemia were generated by implanting BCMA-expressing multiple myeloma or plasma cell leukemia cell lines (i.e., NCI-H929, JJN-3, MM.1S, and MM.1R) into female CB-17 SCID (C.B-17/IcrHsd-Prkdc-scid) or athymic nude (Foxn1^nu) mice using MATRIGEL™ (BD Biosciences, San Jose, Calif.). Once tumors reached approximately 180 mm^3 (NCI-H929 cells), 190 mm^3 (JJN3 cells), 160 mm^3 (MM.1S cells), or 175 mm^3 (MM.1R cells), mice were randomized based on tumor size and placed into dosing groups and treated with BCMA-targeting ADCs as described below.
Mice were treated with either a single intravenous dose of 15B2GL-SG3249, 109-SG3249, L15-SG3249 ADCs at 1 mg/kg or dosed intravenously with J6M0-mc-MMAF twice weekly at a dose of 1 mg/kg for 4 weeks. Control mice were left untreated.

NCI-H929 xenograft = test: NCI-H929 subcutaneous xenograft model (Example 5); assay type: in vivo, mouse; conditions: single intravenous dose 0.3 mg/kg, observed for 99 days post tumor implantation
From the text: as §2
Mice were treated with either a single intravenous dose of the ADCs 15B2GL-SG3249, I09-5G3249, L15-SG3249 at 0.3 mg/kg or dosed intravenously with J6M0-mc-MMAF weekly at a dose of 0.3 mg/kg for 2 weeks. Control mice were left untreated.

[1] = system: MM stem cells (clonogenic cells in MM bone marrow biopsies); test: Clonogenic (colony formation) assay on MM patient bone marrow samples; assay type: cell-based, human
Procedure: In particular, cells were counted using a ViCELL™ counter (Beckmann-Coulter Life Sciences, Indianapolis, Ind.) and resuspended in IMDM+2% FBS at 10-fold higher density than required for plating. METHOCULT™ H4434 Classic (StemCell Technologies, Inc., Vancouver, BC, Canada) was mixed with 2000 cells per mL for MM263, MM284, and MM276, and 4000 cells per mL for MM277 following the manufacturer's instructions. 25-400 ng per mL of the test ADCs 15B2GL-SG3249 and J6M0-mc-MMAF was then added to appropriate tubes. A control IgG1-SG3249 antibody was added at only the high dose of 400 ng per mL. All tubes were vortexed thoroughly to mix and then allowed to sit undisturbed, allowing air bubbles to rise to the top. Once the bubbles had risen, 400 μL was removed with a 16-guage blunt end needle and carefully plated into one well of a 24-well ultralow attachment plate (VWR, Radnor, Pa.). Each treatment was plated in duplicate in the inner wells of the plate. PBS was added to the outer wells and the plate was incubated at 37° C. for 7-10 days. Colonies were counted by eye with documentation of colony formation by scanning plates on a Celigo® Image Cytometer (Nexcelom Biosciences, Lawrence, Mass.).

MM.1R xenograft = test: MM.1R subcutaneous xenograft model; assay type: in vivo, mouse; conditions: single intravenous dose 1 mg/kg, observed for 109 days post tumor implantation
From the text: as §2
Mice were treated with either a single intravenous dose of 15B2GL-SG3249 at 1 mg/kg or dosed intravenously with J6M0-mc-MMAF weekly at a dose of 3 mg/kg for 4 weeks. Control mice were left untreated.

JJN3 xenograft = test: JJN3 subcutaneous xenograft model; assay type: in vivo, mouse; conditions: single intravenous dose 1 mg/kg, observed for 104 days post tumor implantation
From the text: as §2
Mice were treated with either a single intravenous dose of 15B2GL-SG3249, 109-SG3249, and L15-SG3249 ADCs at 1 mg/kg, or dosed intravenously with J6M0-mc-MMAF ADC weekly at a dose of 1 mg/kg for 3 weeks. Control mice were left untreated.

TACI = molecular target: T1, TACI (Homo sapiens, UniProt O14836); test: FACS binding to Ad293 cells stably expressing TACI
T1 construct: expressed in transfected cells
T1 sequence (O14836 1-293): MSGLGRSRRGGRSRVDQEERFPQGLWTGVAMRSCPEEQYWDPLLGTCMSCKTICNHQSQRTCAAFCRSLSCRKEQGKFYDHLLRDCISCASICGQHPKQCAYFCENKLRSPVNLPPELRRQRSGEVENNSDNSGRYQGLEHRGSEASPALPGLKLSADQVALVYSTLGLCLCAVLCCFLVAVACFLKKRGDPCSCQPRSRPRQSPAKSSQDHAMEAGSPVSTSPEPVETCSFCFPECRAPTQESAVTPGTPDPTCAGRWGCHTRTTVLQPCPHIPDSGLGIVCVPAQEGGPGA
Procedure: (§3) Antibodies 4679, 756, and 15B2GL (as described below) were analyzed by FACS to evaluate binding of antibodies to human BCMA, cynomolgus monkey BCMA, TACI, and BAFF-R using recombinant forms of the receptors stably expressed on Ad293 cells. Binding assays were performed by incubating antibodies 4679, 756, and 15B2GL with 200,000 cells at 4° C. for 45 minutes followed by two washes with PBS+2% FBS. Cells were then incubated with Alexa-Fluor® 647-labeled secondary antibodies at 4° C., followed by two washes in PBS+2% FBS. Anti-BAFF-R, anti-TACI, and anti-human BCMA-APC labeled antibodies were added according to manufacturer's recommended dilution in control wells. Cells were resuspended in 200 uL PBS+2% FBS+DAPI and antibody binding to live cells was analyzed using a Becton Dickinson™ Biosciences LSRII cytometer.

cynomolgus monkey BCMA = test: FACS binding to Ad293 cells stably expressing cynomolgus BCMA; conditions: Ad293 cells expressing cynoBCMA
Procedure: as §3

monomeric human sBCMA = molecular target: T2, monomeric human sBCMA (Homo sapiens, UniProt Q02223); test: Kinetics/affinity measurement by SPR (BioRad ProteOn XPR36), antibody captured by anti-Fc, sBCMA flowed over; assay type: binding; conditions: sBCMA 100-6.25 nM
T2 construct: is comprised of the entire extracellular domain of the molecule; purchased GenScript
T2 sequence (Q02223 1-54 limits assumed): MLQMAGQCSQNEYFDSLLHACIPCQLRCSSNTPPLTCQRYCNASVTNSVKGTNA
Procedure: The binding of 15B2GL monoclonal antibody and optimized clones I09, L15, P10, N22, and M02 (described in Example 1) was assessed using monomeric human sBCMA (GenScript, Piscataway, N.J.) using a ProteOn™ XPR36 instrument (Bio-Rad, Hercules, Calif.). The binding of J6M0 also was assessed for comparison. Standard amine coupling was used to immobilize 25 μg/ml anti-Fc polyclonal antibody (Jackson ImmunoResearch, West Grove, Pa.) prepared in 10 mM sodium acetate buffer (pH 4.5) to the surface of a ProteOn™ GLC biosensor chip (Bio-Rad, Hercules, Calif.) pre-activated with 20 mM EDAC (1-ethyl-3-(3-dimethylaminopropyl)carbodiimide hydrochloride) and 5 mM Sulfo-NHS (N-hydroxysulfosuccinimide) at a density of ˜200-600 resonance units (RU). 15B2GL, I09, L15, P10, N22, M02, and J6M0 were subsequently injected at a concentration of 1 μg/ml for capture by the immobilized anti-Fc polyclonal antibody. The sensorgram was recorded by flowing two-fold serial dilutions of sBCMA prepared in PBS (pH 7.4) with 0.005% (v/v) Tween®-20, ranging from 100-6.25 nM, over the captured surface for 150 seconds at 75 μL/minute with dissociation time of 600 seconds. ProteOn™ data analysis software was used to analyze the data.

BAFF-R = molecular target: T3, BAFF-R (Homo sapiens, UniProt Q96RJ3); test: FACS binding to Ad293 cells stably expressing BAFF-R
T3 construct: expressed in transfected cells
T3 sequence (Q96RJ3 1-184): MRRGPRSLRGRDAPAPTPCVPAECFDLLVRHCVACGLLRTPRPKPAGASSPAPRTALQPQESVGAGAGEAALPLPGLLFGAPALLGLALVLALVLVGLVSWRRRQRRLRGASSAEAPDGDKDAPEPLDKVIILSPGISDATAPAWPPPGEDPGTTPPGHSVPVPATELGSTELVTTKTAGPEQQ
Procedure: as §3

[2] = system: H929 multiple myeloma cells; test: Internalization by FACS on H929 cells; assay type: cell-based; conditions: compared to J6M0 and the LO antibodies
Procedure: The ability of the 15B2GL antibody and LO clones of 15B2GL to bind, internalize, and kill H929 multiple myeloma cells in vitro was assessed using Fab-ZAP and by FACS binding to endogenous BCMA expressed on cell lines as described above. Briefly, antibodies were incubated with 200,000 cells for 30 minutes at 4° C. followed by two washes with PBS+2% FBS. Cells were resuspended in 100 uL cold PBS+2% FBS and kept at 4° C. At certain timepoints, cells were washed and resuspended in warm RPMI+10% FBS and placed into a 37° C. incubator, 5% CO2. At the end of the experiment, cells were washed and then incubated with Alexa-Fluor® 647-labeled secondary antibodies at 4° C., followed by two washes in PBS+2% FBS. Cells were resuspended in 200 μL PBS+2% FBS+DAPI and antibody binding to live cells was analyzed using a Becton Dickinson Biosciences LSRII cytometer.

B1: 15B2GL-SG3249: ADC: 15B2GL monoclonal antibody site-specifically conjugated to the PBD payload SG3249 (conjugate)
VH: EVQLVESGGGLVKPGGSLRLSCAASGFTFRSYSMNWVRQAPGKGLEWVSSISGSSNYIYYADSVKGRFTISRDNAKNSLYLQMNSLRAEDTAVYYCARGGNYYVEYFQYWGQGTLVTVSS
VL: EIVLTQSPGTLSLSPGERATLSCRASQYISSNYLAWYQQKPGQAPRLLIYGASNRATGIPDRFSGSGSGTDFTLTISRLEPEDFAVYYCQQYGSSPITFGQGTKLEIK
tumor cells killed (average) (MM.1S cells): 95%
IC50 (Raji): >500 ng/mL
IC50 (Jurkat): >500 ng/mL
tumor regrowth (MM.1S xenograft): no evidence of tumor regrowth
tumor regrowth (NCI-H929 xenograft): no evidence of tumor regrowth
colonies killed / reduction in colony formation ([1]; patient sample MM263, 400 ng/mL): 100%
colonies killed / reduction in colony formation ([1]; patient sample MM276, 400 ng/mL): 87.5%
colonies killed / reduction in colony formation ([1]; patient sample MM277, 400 ng/mL): 91%
colonies killed / reduction in colony formation ([1]; patient sample MM284, 400 ng/mL): 100%
tumor regrowth (MM.1R xenograft): no evidence of tumor regrowth
tumor regrowth (JJN3 xenograft): no evidence of tumor regrowth

B2: 15B2GL: germline form of anti-BCMA monoclonal antibody 15B2; VH SEQ ID NO: 7, VL SEQ ID NO: 8 (antibody, V domains shown)
VH: EVQLVESGGGLVKPGGSLRLSCAASGFTFRSYSMNWVRQAPGKGLEWVSSISGSSNYIYYADSVKGRFTISRDNAKNSLYLQMNSLRAEDTAVYYCARGGNYYVEYFQYWGQGTLVTVSS
VL: EIVLTQSPGTLSLSPGERATLSCRASQYISSNYLAWYQQKPGQAPRLLIYGASNRATGIPDRFSGSGSGTDFTLTISRLEPEDFAVYYCQQYGSSPITFGQGTKLEIK
Binding to TACI (TACI): did not bind
Cynomolgus cross-reactivity (cynomolgus monkey BCMA): cynomolgus cross-reactive; also recorded: cyno-cross reactive
Koff (monomeric human sBCMA): 2.27E−02
Kon (monomeric human sBCMA): 3.73E+05
Binding to BAFF-R (BAFF-R): did not bind
Internalization [2]: unique and rapid internalization
